B1: Flag-PLK4 wt (polo-like kinase 4), full-length [human] / CEP152, endogenous [human (endogenous in HEK293T)] (parent complex)
chain 1: MATCIGEKIEDFKVGNLLGKGSFAGVYRAESIHTGLEVAIKMIDKKAMYKAGMVQRVQNEVKIHCQLKHPSILELYNYFEDSNYVYLVLEMCHNGEMNRYLKNRVKPFSENEARHFMHQIITGMLYLHSHGILHRDLTLSNLLLTRNMNIKIADFGLATQLKMPHEKHYTLCGTPNYISPEIATRSAHGLESDVWSLGCMFYTLLIGRPPFDTDTVKNTLNKVVLADYEMPSFLSIEAKDLIHQLLRRNPADRLSLSSVLDHPFMSRNSSTKSKDLGTVEDSIDSGHATISTAITASSSTSISGSLFDKRRLLIGQPLPNKMTVFPKNKSSTDFSSSGDGNSFYTQWGNQETSNSGRGRVIQDAEERPHSRYLRRAYSSDRSGTSNSQSQAKTYTMERCHSAEMLSVSKRSGGGENEERYSPTDNNANIFNFFKEKTSSSSGSFERPDNNQALSNHLCPGKTPFPFADPTPQTETVQQWFGNLQINAHLRKTTEYDSISPNRDFQGHPDLQKDTSKNAWTDTKVKKNSDASDNAHSVKQQNTMKYMTALHSKPEIIQQECVFGSDPLSEQSKTRGMEPPWGYQNRTLRSITSPLVAHRLKPIRQKTKKAVVSILDSEEVCVELVKEYASQEYVKEVLQISSDGNTITIYYPNGGRGFPLADRPPSPTDNISRYSFDNLPEKYWRKYQYASRFVQLVRSKSPKITYFTRYAKCILMENSPGADFEVWFYDGVKIHKTEDFIQVIEKTGKSYTLKSESEVNSLKEEIKMYMDHANEGHRICLALESIISEEERKTRSAPFFPIIIGRKPGSTSSPKALSPPPSVDSNYPTRERASFNRMVMHSAASPTQAPILNPSMVTNEGLGLTTTASGTDISSNSLKDCLPKSAQLLKSVFVKNVGWATQLTSGAVWVQFNDGSQLVVQAGVSSISYTSPNGQTTRYGENEKLPDYIKQKLQCLSSILLMFSNPTPNFH
chain 2: MSLDFGSVALPVQNEDEEYDEEDYEREKELQQLLTDLPHDMLDDDLSSPELQYSDCSEDGTDGQPHHPEQLEMSWNEQMLPKSQSVNGYNEIQSLYAGEKCGNVWEENRSKTEDRHPVYHPEEGGDEGGSGYSPPSKCEQTDLYHLPENFRPYTNGQKQEFNNQATNVIKFSDPQWNHFQGPSCQGLEPYNKVTYKPYQSSAQNNGSPAQEITGSDTFEGLQQQFLGANENSAENMQIIQLQVLNKAKERQLENLIEKLNESERQIRYLNHQLVIIKDEKDGLTLSLRESQKLFQNGKEREIQLEAQIKALETQIQALKVNEEQMIKKSRTTEMALESLKQQLVDLHHSESLQRAREQHESIVMGLTKKYEEQVLSLQKNLDATVTALKEQEDICSRLKDHVKQLERNQEAIKLEKTEIINKLTRSLEESQKQCAHLLQSGSVQEVAQLQFQLQQAQKAHAMSANMNKALQEELTELKDEISLYESAAKLGIHPSDSEGELNIELTESYVDLGIKKVNWKKSKVTSIVQEEDPNEELSKDEFILKLKAEVQRLLGSNSMKRHLVSQLQNDLKDCHKKIEDLHQVKKDEKSIEVETKTDTSEKPKNQLWPESSTSDVVRDDILLLKNEIQVLQQQNQELKETEGKLRNTNQDLCNQMRQMVQDFDHDKQEAVDRCERTYQQHHEAMKTQIRESLLAKHALEKQQLFEAYERTHLQLRSELDKLNKEVTAVQECYLEVCREKDNLELTLRKTTEKEQQTQEKIKEKLIQQLEKEWQSKLDQTIKAMKKKTLDCGSQTDQVTTSDVISKKEMAIMIEEQKCTIQQNLEQEKDIAIKGAMKKLEIELELKHCENITKQVEIAVQNAHQRWLGELPELAEYQALVKAEQKKWEEQHEVSVNKRISFAVSEAKEKWKSELENMRKNILPGKELEEKIHSLQKELELKNEEVPVVIRAELAKARSEWNKEKQEEIHRIQEQNEQDYRQFLDDHRNKINEVLAAAKEDFMKQKTELLLQKETELQTCLDQSRREWTMQEAKRIQLEIYQYEEDILTVLGVLLSDTQKEHISDSEDKQLLEIMSTCSSKWMSVQYFEKLKGCIQKAFQDTLPLLVENADPEWKKRNMAELSKDSASQGTGQGDPGPAAGHHAQPLALQATEAEADKKKVLEIKDLCCGHCFQELEKAKQECQDLKGKLEKCCRHLQHLERKHKAVVEKIGEENNKVVEELIEENNDMKNKLEELQTLCKTPPRSLSAGAIENACLPCSGGALEELRGQYIKAVKKIKCDMLRYIQESKERAAEMVKAEVLRERQETARKMRKYYLICLQQILQDDGKEGAEKKIMNAASKLATMAKLLETPISSKSQSKTTQSALPLTSEMLIAVKKSKRNDVNQKIPCCIESKSNSVNTITRTLCEQAPKRRAACNLQRLLENSEHQSIKHVGSKETHLEFQFGDGSCKHLNSLPRNVSPEFVPCEGEGGFGLHKKKDLLSDNGSESLPHSAAYPFLGTLGNKPSPRCTPGPSESGCMHITFRDSNERLGLKVYKCNPLMESENAASEKSQGLDVQEPPVKDGGDLSDCLGWPSSSATLSFDSREASFVHGRPQGTLEIPSESVKSKQFSPSGYLSDTEESNMICQTMKCQRYQTPYLSEETTYLEPGKISVNCGHPSRHKADRLKSDFKKLSSTLPSSVCQQPSRKLIVPLSSQQDSGFDSPFVNLD
B2: Flag-PLK4 wt (polo-like kinase 4), full-length [human] / CEP192, endogenous [human (endogenous in HEK293T)] (parent complex)
chain 1: B1 chain 1
chain 2: MEDFRGIAEESFPSFLTNSLFGNSGILENVTLSSNLGLPVAVSTLARDRSSTDNRYPDIQASYLVEGRFSVPSGSSPGSQSDAEPRERLQLSFQDDDSISRKKSYVESQRLSNALSKQSALQMETAGPEEEPAGATESLQGQDLFNRASPLEQAQDSPIDFHLQSWMNNKEPKIVVLDAGKHFEDKTLKSDLSHTSLLENEKLILPTSLEDSSDDDIDDEMFYDDHLEAYFEQLAIPGMIYEDLEGPEPPEKGFKLPTNGLRQANENGSLNCKFQSENNSSLISLDSHSSETTHKESEESQVICLPGTSNSIGTGDSRRYTDGMLPFSSGTWGTEKEIENLKGIVPDLNSECASKDVLVKTLRAIDVKLNSDNFHDANANRGGFDLTDPVKQGAECPHQNKTVLHMDGCLDTETPTVSIQENVDVASLKPISDSGINFTDAIWSPTCERRTCECHESIEKNKDKTDLPQSVVYQNEEGRWVTDLAYYTSFNSKQNLNVSLSDEMNEDFRSGSEAFDLIAQDEEEFNKEHQFIQEENIDAHNTSVALGDTSWGATINYSLLRKSRSTSDLDKDDASYLRLSLGEFFAQRSEALGCLGGGNNVKRPSFGYFIRSPEKREPIALIRKSDVSRGNLEKEMAHLNHDLYSGDLNEQSQAQLSEGSITLQVEAVESTSQVDENDVTLTADKGKTEDTFFMSNKPQRYKDKLPDSGDSMLRISTIASAIAEASVNTDPSQLAAMIKALSNKTRDKTFQEDEKQKDYSHVRHFLPNDLEKSNGSNALDMEKYLKKTEVSRYESALENFSRASMSDTWDLSLPKEQTTQDIHPVDLSATSVSVRAPEENTAAIVYVENGESENQESFRTINSSNSVTNRENNSAVVDVKTCSIDNKLQDVGNDEKATSISTPSDSYSSVRNPRITSLCLLKDCEEIRDNRENQRQNECVSEISNSEKHVTFENHRIVSPKNSDLKNTSPEHGGRGSEDEQESFRPSTSPLSHSSPSEISGTSSSGCALESFGSAAQQQQPPCEQELSPLVCSPAGVSRLTYVSEPESSYPTTATDDALEDRKSDITSELSTTIIQGSPAALEERAMEKLREKVPFQNRGKGTLSSIIQNNSDTRKATETTSLSSKPEYVKPDFRWSKDPSSKSGNLLETSEVGWTSNPEELDPIRLALLGKSGLSCQVGSATSHPVSCQEPIDEDQRISPKDKSTAGREFSGQVSHQTTSENQCTPIPSSTVHSSVADMQNMPAAVHALLTQPSLSAAPFAQRYLGTLPSTGSTTLPQCHAGNATVCGFSGGLPYPAVAGEPVQNSVAVGICLGSNIGSGWMGTSSLCNPYSNTLNQNLLSTTKPFPVPSVGTNCGIEPWDSGVTSGLGSVRVPEELKLPHACCVGIASQTLLSVLNPTDRWLQVSIGVLSISVNGEKVDLSTYRCLVFKNKAIIRPHATEEIKVLFIPSSPGVFRCTFSVASWPCSTDAETIVQAEALASTVTLTAIAESPVIEVETEKKDVLDFGDLTYGGWKALPLKLINRTHATVPIRLIINANAVAWRCFTFSKESVRAPVEVAPCADVVTRLAGPSVVNHMMPASYDGQDPEFLMIWVLFHSPKKQISSSDILDSAEEFSAKVDIEVDSPNPTPVLRSVSLRARAGIARIHAPRDLQTMHFLAKVASSRKQHLPLKNAGNIEVYLDIKVPEQGSHFSVDPKNLLLKPGEEHEVIVSFTPKDPEACEERILKIFVQPFGPQYEVVLKGEVISSGSKPLSPGPCLDIPSILSNKQFLAWGGVPLGRTQLQKLALRNNSASTTQHLRLLIRGQDQDCFQLQNTFGSEQRLTSNCEIRIHPKEDIFISVLFAPTRLSCMLARLEIKQLGNRSQPGIKFTIPLSGYGGTSNLILEGVKKLSDSYMVTVNGLVPGKESKIVFSVRNTGSRAAFVKAVGFKDSQKKVLLDPKVLRIFPDKFVLKERTQENVTLIYNPSDRGINNKTATELSTVYLFGGDEISRQQYRRALLHKPEMIKQILPEHSVLQNINFVEAFQDELLVTEVYDLPQRPNDVQLFYGSMCKIILSVIGEFRDCISSREFLQPSSKASLESTSDLGASGKHGGNVSLDVLPVKGPQGSPLLSRAARPPLDQLASEEPWTVLPEHLILVAPSPCDMAKTGRFQIVNNSVRLLRFELCWPAHCLTVTPQHGCVAPESKLQILVSPNSSLSTKQSMFPWSGLIYIHCDDGQKKIVKVQIREDLTQVELLTRLTSKPFGILSPVSEPSVSHLVKPMTKPPSTKVEIRNKSITFPTTEPGETSESCLELENHGTTDVKWHLSSLAPPYVKGVDESGDVFRATYAAFRCSPISGLLESHGIQKVSITFLPRGRGDYAQFWDVECHPLKEPHMKHTLRFQLSGQSIEAENEPENACLSTDSLIKIDHLVKPRRQAVSEASARIPEQLDVTARGVYAPEDVYRFRPTSVGESRTLKVNLRNNSFITHSLKFLSPREPFYVKHSKYSLRAQHYINMPVQFKPKSAGKFEALLVIQTDEGKSIAIRLIGEALGKN
B3: Flag-PLK4 wt (polo-like kinase 4), full-length [human] / DCAF1 (VprBP), endogenous [human (endogenous in HEK293T)] (parent complex)
chain 1: B1 chain 1
chain 2: not shown

Variants of: B1
Experiment: co-immunoprecipitation (IP against Flag tag, Western blot quantification); HEK293T cells, 48 h overexpression, N = 3; read off a plot

chain 1 K699A was tested. Which ratio to parent did it give?
The ratio to parent was ~0.09.

For chain 1 R691A, which ratio to parent is on record?
Its ratio to parent is ~0.83.

With chain 1 K608A as the variant, how does the ratio to parent read?
Its ratio to parent is ~0.16.

chain 1 I602E was tested. Which ratio to parent did it give?
The ratio to parent was ~0.03.

Variants of: B2
Experiment: as above

With chain 1 K608A as the variant, how does the ratio to parent read?
Its ratio to parent is ~0.1.

With chain 1 K699A as the variant, how does the ratio to parent read?
Its ratio to parent is ~0.1.

For chain 1 I602E, which ratio to parent is on record?
The ratio to parent was ~0.01.

chain 1 R691A was tested. Which ratio to parent did it give?
The ratio to parent was ~1.5.

Variants of: B3
Experiment: as above

Which ratio to parent does the source give for chain 1 K608A here?
The ratio to parent was ~0.

Which ratio to parent does the source give for chain 1 K699A here?
The ratio to parent was ~0.

Which ratio to parent does the source give for chain 1 R691A here?
Its ratio to parent is ~0.05.

Which ratio to parent does the source give for chain 1 I602E here?
The ratio to parent was ~0.01.

Variants of: B3
Experiment: as above
Remark: another data set of the same source

With chain 1 K41R as the variant, how does the ratio to parent read?
The ratio to parent was ~0.79.

chain 1 S285A, chain 1 T289A was tested. Which ratio to parent did it give?
The ratio to parent was ~0.58.

Variants of: B3
Experiment: as above
Remark: another data set of the same source

How did the ratio to parent turn out when chain 1 K753A was run?
Its ratio to parent is ~1.6.

How did the ratio to parent turn out when chain 1 K748A was run?
Its ratio to parent is ~1.5.
